Measured values published in patent publication US20170101466A1.

How the values were obtained:
[1] = target: soluble human BLyS (human) (UniProt Q9Y275); assay: cell-based or functional assay
[2] = target: soluble mouse BLyS (mouse) (UniProt Q9WU72); assay: cell-based or functional assay

| Binder | IC50 hBLyS stimulated, mouse splenic B-cell proliferation [1] | IC50 mBLyS stimulated, mouse splenic B-cell proliferation [2] | hBLyS B-cell proliferation (IC50) [1] |
| --- | --- | --- | --- |
| human TACI (immunoglobulin fusion) (Fc fusion, part only; not given: immunoglobulin part, UniProt O14836 30-110, looked up, part only) chain, part: AMRSCPEEQYWDPLLGTCMSCKTICNHQSQRTCAAFCRSLSCRKEQGKFYDHLLRDCISCASICGQHPKQCAYFCENKLRS | 7 ng/mL | 7 ng/mL | – |
| 14F11 IgG expressed in HEK293 cells (antibody, V domains shown) VH: QVQLVQSGAEVKKPGSSVKVSCKASGGTFSSYAISWVRQAPGQGLEWMGRINPNSGGTNYAQKFQGRVTMTRDTSISTAYMELSRLRSDDTFVYYCAREGYDFLTGYTLGGMDVWGQGTTVTVSS VL: QSVLTQPPSVSAAPGQKVTISCSGSSSNIGNNYVSWYQQLPGTAPKLLIYDNNKRPSGIPDRFSASKSGTSASLAISGLQAEDEADYYCQSYDSSLSGVVFGGGTKLTVLG | – | – | 12 |
